Laboratory results from the supplement of paper PMC7125110.
± gives the standard error. For part of these data: Fewer inactive variants are shown than the library holds.

B1: glmS ribozyme (parent)
chain: AUAAAAGCGCCAGAACUACAGAAAUGUAGUUGACGAGGAGGAGGUUUAUCGAAUUUUCGGCGGAUGCCUCCAAA

What was measured:
Conditions in all cases: with glucosamine-6-phosphate
glucosamine-6-phosphate [1] = variants of: B1; experiment: kcat; higher = faster cleavage; RNA array
Summary of the method: (§1)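 Tiles of sequenced MiSeq chips were imaged over ~14 h at 37 °C. On them, barcoded ribozyme variants had been transcribed in situ by E. coli RNA polymerase and were tracked via a hybridised Cy3 probe while glucosamine-6-phosphate (40 μM to 10 mM) in HEPES/KCl/Mg(OAc)2 buffer flowed in. Per-tile medians, normalised to baseline and to non-cleaving reference variants, were fit to one- or two-exponential decays for kobs, and weighted Michaelis–Menten fits gave kcat and KM.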

glucosamine-6-phosphate [2] = variants of: B1; experiment: KM; higher = weaker cofactor use; RNA array
Summary of the method: as §1

glucosamine-6-phosphate [3] = variants of: B1; experiment: self-cleavage kobs at 40 uM GlcN6P; higher = faster cleavage; RNA array
Summary of the method: as §1

glucosamine-6-phosphate [4] = variants of: B1; experiment: self-cleavage kobs at 640 uM GlcN6P; higher = faster cleavage; RNA array
Summary of the method: as §1

glucosamine-6-phosphate [5] = variants of: B1; experiment: self-cleavage kobs at 160 uM GlcN6P; higher = faster cleavage; RNA array
Summary of the method: as §1

glucosamine-6-phosphate [6] = variants of: B1; experiment: self-cleavage kobs at 2500 uM GlcN6P; higher = faster cleavage; RNA array
Summary of the method: as §1

glucosamine-6-phosphate [7] = variants of: B1; experiment: self-cleavage kobs at 10000 uM GlcN6P; higher = faster cleavage; RNA array
Summary of the method: as §1

Variant	kcat (glucosamine-6-phosphate [1]) [s⁻¹]	KM (glucosamine-6-phosphate [2]) [mM]	self-cleavage kobs at 40 uM GlcN6P (glucosamine-6-phosphate [3]) [s⁻¹]	self-cleavage kobs at 640 uM GlcN6P (glucosamine-6-phosphate [4]) [s⁻¹]	self-cleavage kobs at 160 uM GlcN6P (glucosamine-6-phosphate [5]) [s⁻¹]	self-cleavage kobs at 2500 uM GlcN6P (glucosamine-6-phosphate [6]) [s⁻¹]	self-cleavage kobs at 10000 uM GlcN6P (glucosamine-6-phosphate [7]) [s⁻¹]
G32A G41U A52U	< 1e-05	1.01 ± 0.12	< 1e-05	< 1e-05			
G32C A42U	< 1e-05				< 1e-05	< 1e-05	
G32C A42G	0.000211 ± 3.7e-05					3.92e-05 ± 9.5e-06	0.000103 ± 1.3e-05
A33C U55A	0.000974 ± 0.00015	3.16 ± 0.94		0.000183 ± 3.5e-05	3.03e-05 ± 1.4e-05	0.000519 ± 9.2e-05	0.000717 ± 7.8e-05
A33C U55G	0.000433 ± 0.00012	2.97 ± 1.4		9.32e-05 ± 1.6e-05		0.000163 ± 2.8e-05	0.000384 ± 6.3e-05
G32A G59A C68U	1.04e-05 ± 2.4e-06						
G32A U47C	0.000343 ± 5.5e-05	2.45 ± 0.76		7.19e-05 ± 1.5e-05		0.000185 ± 2.3e-05	0.000258 ± 4.4e-05
U31G C71G	0.000461 ± 0.0001	0.408 ± 0.18	5.48e-05 ± 1.3e-05		0.000111 ± 2.7e-05	0.000329 ± 7.1e-05	0.000555 ± 9.7e-05
G32C C70U	0.000154 ± 1.4e-05	2.85 ± 0.8		3.89e-05 ± 1.1e-05		6.52e-05 ± 1e-05	0.000121 ± 7.5e-06
U31G U45A A52G	0.000908 ± 0.00012	4.89 ± 1.5				0.000361 ± 0.00013	0.000604 ± 8.7e-05
G32U G66C	5.37e-05 ± 2.7e-06	7.24 ± 0.85	< 1e-05				3.11e-05 ± 1.2e-05
G32U G66A	0.000468 ± 5.1e-05	3.02 ± 0.56		8.47e-05 ± 1e-05		0.00021 ± 2.9e-05	0.000358 ± 4.3e-05
G32U G66U	9.79e-05 ± 9.9e-06	7.29 ± 1.7					5.66e-05 ± 1.4e-05
G32U C71A	0.000322 ± 6.6e-05	4.08 ± 1.9		3.16e-05 ± 1.1e-05		0.000161 ± 2.6e-05	0.000222 ± 2.3e-05
A33C C61A	< 1e-05						< 1e-05
G32C U45A	0.000238 ± 2.8e-05	3.69 ± 1		2.9e-05 ± 1.3e-05		0.000113 ± 2.7e-05	0.000171 ± 2.3e-05
G35U G51C	< 1e-05			< 1e-05	< 1e-05		
U31G A36C	< 1e-05				< 1e-05		< 1e-05
